Measurements published in patent US20260242419A1, “A CYCLIC PEPTIDE FOR TRAPPING INTERLEUKIN-1 BETA” (Merck Sharp & Dohme LLC, priority 2023, published 2026).
Starred links: 1 amine or outer side, 2 acyl side, 3 side chain; linkers in the order of their positions; H or OH if unused. Non-standard residues stand in square brackets, D forms with d. Primed or numbered codes have the meaning given here. dProc4Bn4Br = (2R,4R)-4-[(4-bromophenyl)methyl]pyrrolidine-2-carboxylic acid, O=C([C@H]1C[C@@H](Cc2ccc(Br)cc2)CN1[*:1])[*:2]; Trp(4-Cl)(βS-Me) = C[C@@H](c1c[nH]c2cccc(Cl)c12)[C@H](N)C(=O)O; Trp(βS-Me,4-F) = C[C@@H](c1c[nH]c2cccc(F)c12)[C@H](N)C(=O)O; Bip(4'-COOH) = N[C@@H](Cc1ccc(-c2ccc(C(=O)O)cc2)cc1)C(=O)O; Ala(1-bicyclo(1.1.1)pentyl) = N[C@@H](CC12CC(C1)C2)C(=O)O; dPro(4R-Bzl(4-F)) = O=C(O)[C@H]1C[C@@H](Cc2ccc(F)cc2)CN1; 1Nal(3S-Me) = C[C@@H](c1cccc2ccccc12)[C@H](N)C(=O)O; Ala(pyrimidin-5-yl) = N[C@@H](Cc1cncnc1)C(=O)O; Phe(4-COOH) = N[C@@H](Cc1ccc(C(=O)O)cc1)C(=O)O; dαMeDab = C[C@](CCN[*:3])(N[*:1])C(=O)[*:2]; Pro(cis-4-F) = O=C(O)[C@@H]1C[C@H](F)CN1; cisHyp = O=C(O)[C@@H]1C[C@H](O)CN1; d(αMeD) = C[C@@](N)(CC(=O)O)C(=O)O; aIle = CC[C@@H](C)[C@H](N)C(=O)O; 4Pal = N[C@@H](Cc1ccncc1)C(=O)O; aThr = C[C@H](O)[C@H](N)C(=O)O; αMeD = C[C@](N)(CC(=O)O)C(=O)O; αMeK = C[C@](N)(CCCCN)C(=O)O; dαMeDab′ = not defined here; hSer = N[C@@H](CCO)C(=O)O; Dab = NCC[C@H](N)C(=O)O; Aib = CC(C)(N)C(=O)O; Sar = CNCC(=O)O

B1: SEQ ID NO: 142 (peptide)
peptide: cyclo([Bip(4'-COOH)][4Pal][Phe(4-COOH)]G[Pro(cis-4-F)][Trp(βS-Me,4-F)][Aib]SW[dαMeDab][Ala(pyrimidin-5-yl)]Q[Dab]G[dPro(4R-Bzl(4-F))])
modifications: ring closure inferred; not fully specified (bridges); printed as Bip4CO2H-4Pal-Phe4COOH-G-Proc4F-SbMeW4F-Aib-S-W-daMeDab-PyrimAla-Q-Dab-G-dProc4Bn4F
B2: SEQ ID NO: 139 (peptide)
peptide: cyclo([Bip(4'-COOH)][4Pal][Phe(4-COOH)]G[Pro(cis-4-F)][Trp(4-Cl)(βS-Me)][Aib]SW[Aib][Ala(pyrimidin-5-yl)]Q[Dab]G[dPro(4R-Bzl(4-F))])
modifications: ring closure inferred; not fully specified (bridges); printed as Bip4CO2H-4Pal-Phe4COOH-G-Proc4F-SbMeW4Cl-Aib-S-W-Aib-PyrimAla-Q-Dab-G-dProc4Bn4F
B3: SEQ ID NO: 143 (peptide)
peptide: cyclo([Bip(4'-COOH)][4Pal][Phe(4-COOH)]G[Pro(cis-4-F)][Trp(βS-Me,4-F)][Aib]EW[Aib][Ala(pyrimidin-5-yl)]Q[Dab]G[dProc4Bn4Br])
modifications: ring closure inferred; not fully specified (bridges); printed as Bip4CO2H-4Pal-Phe4COOH-G-Proc4F-sbMeW4F-Aib-E-W-Aib-PyrimAla-Q-Dab-G-dProc4Bn4Br, cyclic (macrolactam)
B4: SEQ ID NO: 136 (peptide)
peptide: cyclo([Bip(4'-COOH)][4Pal][Phe(4-COOH)]G[Pro(cis-4-F)][Trp(βS-Me,4-F)][Aib][aIle]W[αMeK][Ala(pyrimidin-5-yl)]Q[Dab]G[dPro(4R-Bzl(4-F))])
modifications: ring closure inferred; not fully specified (bridges); printed as Bip4CO2H-4Pal-Phe4COOH-G-Proc4F-SbMeW4F-Aib-alI-W-aMeK-PyrimAla-Q-Dab-G-dProc4Bn4F
B5: SEQ ID NO: 134 (peptide)
peptide: cyclo([Bip(4'-COOH)][4Pal][Phe(4-COOH)]G[Pro(cis-4-F)][Trp(βS-Me,4-F)][Aib]AW[αMeK][Ala(pyrimidin-5-yl)]Q[Dab]G[dPro(4R-Bzl(4-F))])
modifications: ring closure inferred; not fully specified (bridges); printed as Bip4CO2H-4Pal-Phe4COOH-G-Proc4F-SbMeW4F-Aib-A-W-aMeK-PyrimAla-Q-Dab-G-dProc4Bn4F
B6: SEQ ID NO: 138 (peptide)
peptide: cyclo([Bip(4'-COOH)][4Pal][Phe(4-COOH)]G[Pro(cis-4-F)][Trp(βS-Me,4-F)][Aib][aThr]W[αMeK][Ala(pyrimidin-5-yl)]Q[Dab]G[dPro(4R-Bzl(4-F))])
modifications: ring closure inferred; not fully specified (bridges); printed as Bip4CO2H-4Pal-Phe4COOH-G-Proc4F-SbMeW4F-Aib-alT-W-aMeK-PyrimAla-Q-Dab-G-dProc4Bn4F
B7: SEQ ID NO: 144 (peptide)
peptide: cyclo([Bip(4'-COOH)][Ala(1-bicyclo(1.1.1)pentyl)][Phe(4-COOH)]G[Pro(cis-4-F)][Trp(βS-Me,4-F)][Aib]SW[αMeK][Ala(pyrimidin-5-yl)]Q[Dab]G[dPro(4R-Bzl(4-F))])
modifications: ring closure inferred; not fully specified (bridges); printed as Bip4CO2H-AlaPent-Phe4COOH-G-Proc4F-SbMeW4F-Aib-S-W-aMeK-PyrimAla-Q-Dab-G-dProc4Bn4F, cyclic (macrolactam)
B8: SEQ ID NO: 140 (peptide)
peptide: cyclo([Bip(4'-COOH)][4Pal][Phe(4-COOH)]G[Pro(cis-4-F)][1Nal(3S-Me)][Aib]SW[Aib][Ala(pyrimidin-5-yl)]Q[Dab]G[dPro(4R-Bzl(4-F))])
modifications: ring closure inferred; not fully specified (bridges); printed as Bip4CO2H-4Pal-Phe4COOH-G-Proc4F-SbMe1Nal-Aib-S-W-Aib-PyrimAla-Q-Dab-G-dProc4Bn4F
B9: SEQ ID NO: 127 (peptide)
peptide: cyclo([Bip(4'-COOH)][4Pal][Phe(4-COOH)]G[cisHyp][Trp(βS-Me,4-F)][Aib]SW[Aib][Ala(pyrimidin-5-yl)]Q[Dab]G[dPro(4R-Bzl(4-F))])
modifications: ring closure inferred; not fully specified (bridges); printed as Bip4CO2H-4Pal-Phe4COOH-G-Proc4OH-SbMeW4F-Aib-S-W-Aib-PyrimAla-Q-Dab-G-dProc4Bn4F
B10: SEQ ID NO: 137 (peptide)
peptide: cyclo([Bip(4'-COOH)][4Pal][Phe(4-COOH)]G[Pro(cis-4-F)][Trp(βS-Me,4-F)][Aib]TW[αMeK][Ala(pyrimidin-5-yl)]Q[Dab]G[dPro(4R-Bzl(4-F))])
modifications: ring closure inferred; not fully specified (bridges); printed as Bip4CO2H-4Pal-Phe4COOH-G-Proc4F-SbMeW4F-Aib-T-W-aMeK-PyrimAla-Q-Dab-G-dProc4Bn4F
B11: SEQ ID NO: 133 (peptide)
peptide: cyclo([Bip(4'-COOH)][4Pal][Phe(4-COOH)]G[Pro(cis-4-F)][Trp(βS-Me,4-F)][Aib][hSer]W[αMeK][Ala(pyrimidin-5-yl)]Q[Dab]G[dPro(4R-Bzl(4-F))])
modifications: ring closure inferred; not fully specified (bridges); printed as Bip4CO2H-4Pal-Phe4COOH-G-Proc4F-SbMeW4F-Aib-hS-W-aMeK-PyrimAla-Q-Dab-G-dProc4Bn4F
B12: SEQ ID NO: 130 (peptide)
peptide: cyclo([Bip(4'-COOH)][4Pal][Phe(4-COOH)]G[Pro(cis-4-F)][Trp(βS-Me,4-F)][Aib]SW[αMeDab][Ala(pyrimidin-5-yl)]Q[Dab]G[dPro(4R-Bzl(4-F))])
modifications: ring closure inferred; not fully specified (bridges); printed as Bip4CO2H-4Pal-Phe4COOH-G-Proc4F-SbMeW4F-Aib-S-W-aMeDab-PyrimAla-Q-Dab-G-dProc4Bn4F
B13: SEQ ID NO: 132 (peptide)
peptide: cyclo([Bip(4'-COOH)][4Pal][Phe(4-COOH)]G[Pro(cis-4-F)][Trp(βS-Me,4-F)][Aib]EW[αMeK][Ala(pyrimidin-5-yl)]Q[Dab][Sar][dPro(4R-Bzl(4-F))])
modifications: ring closure inferred; not fully specified (bridges); printed as Bip4CO2H-4Pal-Phe4COOH-G-Proc4F-SbMeW4F-Aib-E-W-aMeK-PyrimAla-Q-Dab-Sar-dProc4Bn4F
B14: SEQ ID NO: 135 (peptide)
peptide: cyclo([Bip(4'-COOH)][4Pal][Phe(4-COOH)]G[Pro(cis-4-F)][Trp(βS-Me,4-F)][Aib]VW[αMeK][Ala(pyrimidin-5-yl)]Q[Dab]G[dPro(4R-Bzl(4-F))])
modifications: ring closure inferred; not fully specified (bridges); printed as Bip4CO2H-4Pal-Phe4COOH-G-Proc4F-SbMeW4F-Aib-V-W-aMeK-PyrimAla-Q-Dab-G-dProc4Bn4F
B15: SEQ ID NO: 129 (peptide)
peptide: cyclo([Bip(4'-COOH)][4Pal][Phe(4-COOH)]G[Pro(cis-4-F)][Trp(βS-Me,4-F)][αMeDab]SW[Aib][Ala(pyrimidin-5-yl)]Q[Dab]G[dPro(4R-Bzl(4-F))])
modifications: ring closure inferred; not fully specified (bridges); printed as Bip4CO2H-4Pal-Phe4COOH-G-Proc4F-SbMeW4F-aMeDab-S-W-Aib-PyrimAla-Q-Dab-G-dProc4Bn4F
B16: SEQ ID NO: 141 (peptide)
peptide: cyclo([Bip(4'-COOH)][4Pal][Phe(4-COOH)]G[Pro(cis-4-F)][Trp(βS-Me,4-F)][Aib]SW[αMeD][Ala(pyrimidin-5-yl)]Q[Dab]G[dPro(4R-Bzl(4-F))])
modifications: ring closure inferred; not fully specified (bridges); printed as Bip4CO2H-4Pal-Phe4COOH-G-Proc4F-SbMeW4F-Aib-S-W-aMeD-PyrimAla-Q-Dab-G-dProc4Bn4F
B17: SEQ ID NO: 128 (peptide)
peptide: cyclo([Bip(4'-COOH)][4Pal][Phe(4-COOH)]G[Pro(cis-4-F)][Trp(βS-Me,4-F)][Aib]SW[d(αMeD)][Ala(pyrimidin-5-yl)]Q[Dab]G[dPro(4R-Bzl(4-F))])
modifications: ring closure inferred; not fully specified (bridges); printed as Bip4CO2H-4Pal-Phe4COOH-G-Proc4F-SbMeW4F-Aib-S-W-daMeD-PyrimAla-Q-Dab-G-dProc4Bn4F
B18: SEQ ID NO: 131 (peptide)
peptide: cyclo([Bip(4'-COOH)][4Pal][Phe(4-COOH)]G[Pro(cis-4-F)][Trp(βS-Me,4-F)][dαMeDab′]SW[Aib][Ala(pyrimidin-5-yl)]Q[Dab]G[dPro(4R-Bzl(4-F))])
modifications: ring closure inferred; not fully specified (bridges); printed as Bip4CO2H-4Pal-Phe4COOH-G-Proc4F-SbMeW4F-daMeDab-S-W-Aib-PyrimAla-Q-Dab-G-dProc4Bn4F

Each binder was assayed against Recombinant human IL-1β (BioLegend 579404) (human, UniProt P01584 117-269) (assay: cell-based or functional assay).
B1 was tested, and the “MRC5 IC50” value was 0.019 nM.
With B2 the “MRC5 IC50” value was 0.034 nM.
For B3, the “MRC5 IC50” value was 0.026 nM.
For B4, the “MRC5 IC50” value was 0.027 nM.
B5 was tested, and the “MRC5 IC50” value was 0.021 nM.
For B6, the “MRC5 IC50” value was 0.021 nM.
B7 was tested, and the “MRC5 IC50” value was 0.031 nM.
B8 was tested, and the “MRC5 IC50” value was 0.033 nM.
For B9, the “MRC5 IC50” value was 0.013 nM.
In the case of B10, the “MRC5 IC50” value is reported as 0.022 nM.
In the case of B11, the “MRC5 IC50” value is reported as 0.021 nM.
For B12, the “MRC5 IC50” value was 0.039 nM.
B13 was tested, and the “MRC5 IC50” value was 0.015 nM.
In the case of B14, the “MRC5 IC50” value is reported as 0.035 nM.
With B15 the “MRC5 IC50” value was 0.019 nM.
In the case of B16, the “MRC5 IC50” value is reported as 0.011 nM.
In the case of B17, the “MRC5 IC50” value is reported as 0.009 nM.
With B18 the “MRC5 IC50” value was 0.019 nM.
